Measured values as given in PMC4741457, “Structural basis for the indispensable role of a unique zinc finger motif in LNX2 ubiquitination” (Oncotarget, 2015).
Numbering of substitutions follows the chain as printed.

B1: full-length LNX2 (enzyme, human, UniProt Q8N448 1-690, looked up)
chain: MGTTSDEMVSVEQTSSSSLNPLCFECGQQHWTRENHLYNYQNEVDDDLVCHICLQPLLQPLDTPCGHTFCYKCLRNFLQEKDFCPLDRKRLHFKLCKKSSILVHKLLDKLLVLCPFSSVCKDVMQRCDLEAHLKNRCPGASHRRVALERRKTSRTQAEIENENGPTLLDPAGTLSPEADCLGTGAVPVERHLTSASLSTWSEEPGLDNPAFEESAGADTTQQPLSLPEGEITTIEIHRSNPYIQLGISIVGGNETPLINIVIQEVYRDGVIARDGRLLAGDQILQVNNYNISNVSHNYARAVLSQPCNTLHLTVLRERRFGNRAHNHSDSNSPREEIFQVALHKRDSGEQLGIKLVRRTDEPGVFILDLLEGGLAAQDGRLSSNDRVLAINGHDLKYGTPELAAQIIQASGERVNLTIARPGKPQPGNTIREAGNHSSSSQHHTPPPYYSRPSSHKDLTQCVTCQEKHITVKKEPHESLGMTVAGGRGSKSGELPIFVTSVPPHGCLARDGRIKRGDVLLNINGIDLTNLSHSEAVAMLKASAASPAVALKALEVQIVEEATQNAEEQPSTFSENEYDASWSPSWVMWLGLPSTLHSCHDIVLRRSYLGSWGFSIVGGYEENHTNQPFFIKTIVLGTPAYYDGRLKCGDMIVAVNGLSTVGMSHSALVPMLKEQRNKVTLTVICWPGSLV
notes: Ligand of Numb protein-X 2 (LNX2), human, full length (last residue Val690); The methods say in general that MBP-tagged proteins were cleaved with TEV protease before size exclusion; MBP-tagged FL-LNX2 was used uncleaved in some ubiquitination assays; also called FL-LNX2; Ligand of Numb Protein-X 2; source: E. coli BL21 (DE3), purified (amylose sepharose, size exclusion)
B2: full-length LNX2 triple mutant (Lys109Ala, Ser688Asp, Val690Glu) (enzyme, human, UniProt Q8N448 1-690, looked up)
chain: B1 chain with K109A, S688D, V690E
notes: LNX2, human, full length, with Lys109Ala, Ser688Asp and Val690Glu; also called triple mutant of human FL-LNX2; source: E. coli BL21 (DE3), purified
B3: Zn-RING-Zn domain of LNX2 (aa 20-147) (domain or fragment, human, UniProt Q8N448 20-147, looked up)
chain: NPLCFECGQQHWTRENHLYNYQNEVDDDLVCHICLQPLLQPLDTPCGHTFCYKCLRNFLQEKDFCPLDRKRLHFKLCKKSSILVHKLLDKLLVLCPFSSVCKDVMQRCDLEAHLKNRCPGASHRRVAL
notes: Genes were cloned into pGEX6P-1 or pMAL; The last six residues are not in the crystallographic model; Four zinc ions per monomer; source: E. coli BL21 (DE3), purified (glutathione or amylose sepharose, tag cleaved, Superdex size exclusion)
B4: Zn-RING-Zn domain of LNX2 (aa 20-147) Asp45Ala (domain or fragment, human, UniProt Q8N448 20-147, looked up)
chain: B3 chain with D26A
notes: PDB 5DIN is the wild-type parent of the same limits; also called Asp45Ala mutant; source: E. coli BL21 (DE3), purified

Molecular target: the molecule itself
Experiment: SEC; calibrated gel-filtration column (Superdex 75 or Superdex 200), each protein run alone

| Protein | stoichiometry N | binding result |
| --- | --- | --- |
| B1 | 2 |  |
| B2 |  | binds |
| B3 | 2 |  |
| B4 | 2 |  |
